# Legend:
# Details in all cases: 20 nM; 72 h
# [1] = tested on: MCF10A; test: percent viability (nuclei count relative to siNT); higher = more viable cells
# Procedure: (§1)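 After 72 h, cells were fixed and stained with Hoechst and anti-fibrillarin, and nucleoli per nucleus were counted with CellProfiler. Values are plate-adjusted percent effect for the one-nucleolus and 5+ nucleoli phenotypes, normalised to siNT (0%) and to the positive controls siNOL11 or siKIF11 (100%), as the mean of biological triplicates. Percent viability is the nuclei count relative to siNT.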
# [2] = tested on: MCF10A; test: 5+ nucleoli phenotype percent effect (relative to siNT 0% and siKIF11 100%); higher = more cells with five or more nucleoli
# Procedure: as §1
# [3] = tested on: MCF10A; test: one-nucleolus phenotype percent effect (relative to siNT 0% and siNOL11 100%); higher = more cells with one nucleolus (ribosome biogenesis inhibition)
# Procedure: as §1
Sequence,percent viability [1],5+ nucleoli phenotype percent effect [2],one-nucleolus phenotype percent effect [3]
GGGGCUGUGAUUGACCAGCAGG [hsa-miR-4675],24.1%,-11.5%,10.5%
AUCUGCUCUCUUGUUCCCAG [hsa-miR-6828-3p],43.4%,10.5%,2.43%
ACUGGACUUGGAGUCAGAAGGC [hsa-miR-378a-3p],66.7%,13.6%,-2.19%
AACCCCUAAGGCAACUGGAUGG [hsa-miR-5195-5p],53.1%,2.35%,-2.47%
CUCCCACAUGCAGGGUUUGCA [hsa-miR-188-3p],57.7%,25%,-6.75%
UCACAGUGGUCUCUGGGAUUAU [hsa-miR-216a-3p],29.5%,-17.5%,8.32%
ACGGAGACGACAAGACUGUGCUG [hsa-miR-5091],32.1%,-11.8%,3.3%
UAAUGCCCCUAAAAAUCCUUAU [hsa-miR-365a-3p],89.5%,6.01%,2.74%
UCUAUACAGACCCUGGCUUUUC [hsa-miR-1284],75.8%,31.3%,-16.5%
ACCACUGCACUCCAGCCUGAG [hsa-miR-1273g-3p],39.3%,-16.5%,5.96%
UGUGUCCCAUUAUUGGUGAUU [hsa-miR-3657],46.6%,-31.6%,32.2%
AGAGGUUAUCCGUGUUAUGUUC [hsa-miR-655-5p],32.4%,-32.8%,22.9%
CAUGACGUCACAGAGGCUUCGC [hsa-miR-4757-3p],61.2%,36.1%,-14.4%
UUUCCAUAGGUGAUGAGUCAC [hsa-miR-587],86.7%,39.4%,-21.6%
AAAGUGCAUCCUUUUAGAGUGU [hsa-miR-519a-3p],160%,44.1%,-15.2%
AGGGACUUUCAGGGGCAGCUGU [hsa-miR-365b-5p],36.2%,19.9%,4.45%
AUCCGCGCUCUGACUCUCUGCC [hsa-miR-937-3p],78.1%,8.26%,-5.97%
CUCUAGAGGGAAGCACUUUCUG [hsa-miR-520c-5p],82.7%,17.5%,-6.38%
UAUGGCUUUUUAUUCCUAUGUGA [hsa-miR-135a-5p],69%,-18.7%,-3.65%
CAGUGAUUUGAGGAUUAUUGC [hsa-miR-8062],63.9%,-26.5%,7.28%

Sequence,percent viability [1],5+ nucleoli phenotype percent effect [2],one-nucleolus phenotype percent effect [3]
UCAGCUGGCCCUCAUUUC [hsa-miR-1207-3p],15.3%,-48.5%,65%
AAUCACUAACCACACGGCCAGG [hsa-miR-34c-3p],70.3%,13.7%,-3.51%
AAUUUGGUUUCUGAGGCACUUAGU [hsa-miR-5002-5p],32.2%,1.85%,27.3%
UUUCCUACCCUACCUGAAGACU [hsa-miR-3685],36.6%,-32.6%,16.6%
CCUGAGACCCUAGUUCCAC [hsa-miR-4329],60.7%,1.67%,-7.16%
ACAGUAGUCUGCACAUUGGUUA [hsa-miR-199a-3p],67.2%,18.7%,-13.9%
UAUGUGGGAUGGUAAACCGCUU [hsa-miR-299-3p],45.6%,-20.9%,13.9%
CCUAGUAGGUGUCCAGUAAGUGU [hsa-miR-325],58%,25%,-12.1%
CAGGGGGACUGGGGGUGAGC [hsa-miR-6794-5p],50.1%,7.3%,5.76%
CCUGUCUGUGCCUGCUGUACA [hsa-miR-3120-5p],127%,4.71%,-1.5%
GUGGGUGCUGGUGGGAGCCGUG [hsa-miR-6741-5p],43.5%,-22.2%,6.09%
CAAAAACUGCAUUACUUUUGC [hsa-miR-548j-3p],118%,32.5%,-29.2%
GGCUGAGUGGGGUUCUGACUCC [hsa-miR-8077],31.9%,-6.36%,-3.93%
UGAUUGUCUUCCCCCACCCUCA [hsa-miR-6766-3p],43.1%,-20.7%,1.17%
GAACCCAUGAGGUUGAGGCUGCAGU [hsa-miR-1273d],39.1%,-8.88%,3.74%
GGCUUUCUAGUCUCAGCUCUCC [hsa-miR-3160-5p],110%,38.5%,-16.4%
CUGCAGGCAGAAGUGGGGCUGACA [hsa-miR-6511b-5p],27.4%,-9.29%,39.6%
CGAAUCAUUAUUUGCUGCUCUA [hsa-miR-15b-3p],131%,28.9%,-19.7%
AGGAGGAUGGAGAGCUGGGCCAGA [hsa-miR-6894-5p],28.1%,6.67%,22.2%
AAAGGUAAUUGCAGUUUUUCCC [hsa-miR-548ai],155%,16.1%,-23.8%

Sequence,percent viability [1],5+ nucleoli phenotype percent effect [2],one-nucleolus phenotype percent effect [3]
UGUAACAGCAACUCCAUGUGGA [hsa-miR-194-5p],84.3%,-7.22%,8.64%
UCAAGGCCAGAGGUCCCACAGCA [hsa-miR-3922-5p],30.9%,-12.7%,6.44%
AUCCUCUCUUCCCUCCUCCCAG [hsa-miR-7111-3p],47.3%,-40%,3.35%
CCCCGCCACCGCCUUGG [hsa-miR-4258],54.5%,29.4%,-17.4%
AAACCUGUGUUGUUCAAGAGUC [hsa-miR-649],113%,34.7%,-16.6%
UUAGCGGUGGACCGCCCUGCG [hsa-miR-4321],47%,3.56%,-12.2%
CUGACUGUUGCCGUCCUCCAG [hsa-miR-943],62.9%,-13.7%,-0.183%
UUUGUGACCUGGUCCACUAACC [hsa-miR-758-3p],52.5%,-42%,35.1%
ACUGAUUAUCUUAACUCUCUGA [hsa-miR-3920],82%,38.1%,-37.8%
CCACCUCCCCUGCAAACGUCCA [hsa-miR-1306-5p],35%,33%,-25.8%
CGGGCAUGCUGGGAGAGACUUU [hsa-miR-6862-5p],21.6%,-13%,31.7%
ACCUGGCAGCAGGGAGCGUCGU [hsa-miR-8073],33.8%,-35.6%,28.9%
GGAGGCCGGGGUGGGGCGGGGCGG [hsa-miR-6089],153%,53%,-25.7%
UUGUGGAUCUCAAGGAUGUGCU [hsa-miR-4752],31.5%,-34.7%,43.7%
UGGUUGACCAUAGAACAUGCGC [hsa-miR-380-5p],17.6%,-0.352%,13.4%
GAUGAUGAUGGCAGCAAAUUCUGAAA [hsa-miR-1272],76.8%,4.28%,8.72%
GGGAGUGCAGGGCAGGGUUUC [hsa-miR-504-3p],36%,-22.6%,14.7%
UGUGGAAGGUAGACGGCCAGAGA [hsa-miR-3190-3p],19.8%,-44%,42.7%
AUCCCUUGCAGGGGCUGUUGGGU [hsa-miR-623],91.7%,53.3%,-13.1%

# — the supplement of paper PMC10899765
